± gives the uncertainty stated by the source.
B1: GAS2-like protein 1, residues 209 to 276; numbered along this chain, Q99501 (parent)
chain: DELVREILGRCTCPDQFPMIKVSEGKYRVGDSSLLIFVRVLRSHVMVRVGGGWDTLEHYLDKHDPCRC
B2: Ankyrin-1, residues 1405 to 1484; numbered along this chain, P16157 (parent)
chain: MKMAVISEHLGLSWAELARELQFSVEDINRIRVENPNSLLEQSVALLNLWVIREGQNANMENLYTALQSIDRGEIVNMLE

Variants of: B1
Test: abundance fitness (aPCA) (normalised: wild type 0, dead -1); higher = more abundant; growth selection in yeast, the domain comes from the species named
Conditions: Homo sapiens
Variant C68A has an abundance fitness of 0.177 ± 0.066.
With C68D the abundance fitness was 0.046 ± 0.19.
With C68V the abundance fitness was 0.088 ± 0.043.
In the case of C68P, the abundance fitness is reported as -0.331 ± 0.12.
Work on C66A yielded an abundance fitness of -0.878 ± 0.085.
With C66P the abundance fitness was -0.763 ± 0.15.
C66Y gave an abundance fitness of -0.594 ± 0.095.
C66V showed an abundance fitness of -0.97 ± 0.14.
For C66I, the abundance fitness was -0.722 ± 0.17.
Variant C66R has an abundance fitness of -0.797 ± 0.093.
C66W showed an abundance fitness of -1.01 ± 0.2.
Work on C66H yielded an abundance fitness of -0.822 ± 0.4.
C66M gave an abundance fitness of -0.734 ± 0.12.
Variant C66K has an abundance fitness of -0.746 ± 0.13.
With C66G the abundance fitness was -0.848 ± 0.12.
In the case of C66F, the abundance fitness is reported as -0.928 ± 0.21.
In the case of C66S, the abundance fitness is reported as -0.621 ± 0.083.
With C66L the abundance fitness was -0.875 ± 0.072.
For C66E, the abundance fitness was -0.693 ± 0.15.
C66D showed an abundance fitness of -0.502 ± 0.16.
In the case of C66T, the abundance fitness is reported as -0.751 ± 0.083.
With C66Q the abundance fitness was -0.608 ± 0.13.
In the case of L56Q, the abundance fitness is reported as -1.13 ± 0.39.
With L56S the abundance fitness was -0.691 ± 0.098.
With L56H the abundance fitness was -0.959 ± 0.21.
L56M gave an abundance fitness of -0.628 ± 0.12.
In the case of L56G, the abundance fitness is reported as -0.546 ± 0.062.
Variant L56K has an abundance fitness of -0.868 ± 0.13.
L56F showed an abundance fitness of -0.3 ± 0.088.
L56E showed an abundance fitness of -0.965 ± 0.24.
Work on L56I yielded an abundance fitness of -0.485 ± 0.13.
For L56Y, the abundance fitness was -0.716 ± 0.12.
For L56W, the abundance fitness was -0.883 ± 0.15.
L56D gave an abundance fitness of -0.852 ± 0.19.
Work on L56C yielded an abundance fitness of -0.916 ± 0.28.
Variant L56A has an abundance fitness of -0.944 ± 0.12.
Work on L56V yielded an abundance fitness of -0.967 ± 0.11.
With L56N the abundance fitness was -0.806 ± 0.26.
L60D gave an abundance fitness of -0.584 ± 0.12.
Variant L60Y has an abundance fitness of -0.822 ± 0.33.
Variant L60F has an abundance fitness of -0.864 ± 0.5.
In the case of L60I, the abundance fitness is reported as -0.531 ± 0.095.
L60T gave an abundance fitness of -0.994 ± 0.21.
Work on L60N yielded an abundance fitness of -0.885 ± 0.18.
Variant L60G has an abundance fitness of -0.915 ± 0.12.
Work on L60M yielded an abundance fitness of -0.572 ± 0.092.
L60S gave an abundance fitness of -0.928 ± 0.11.
Variant L60E has an abundance fitness of -0.842 ± 0.11.
Work on L60W yielded an abundance fitness of -0.9 ± 0.25.
For L60K, the abundance fitness was -0.838 ± 0.15.
L60P gave an abundance fitness of -0.872 ± 0.12.
L60Q showed an abundance fitness of -0.708 ± 0.19.
Work on L60R yielded an abundance fitness of -0.889 ± 0.13.

Variants of: B2
Test: as above
Conditions: Homo sapiens
In the case of W50D, the abundance fitness is reported as -0.653 ± 0.29.
W50T showed an abundance fitness of -0.823 ± 0.16.
Variant K2Y has an abundance fitness of -0.318 ± 0.11.
Variant K2M has an abundance fitness of -0.132 ± 0.14.
Variant K2L has an abundance fitness of -0.258 ± 0.037.
K2T gave an abundance fitness of -0.254 ± 0.084.
L67M gave an abundance fitness of -0.092 ± 0.1.
For S13I, the abundance fitness was -0.815 ± 0.3.
In the case of S13L, the abundance fitness is reported as -0.417 ± 0.12.
Work on S13Y yielded an abundance fitness of -0.504 ± 0.15.
Work on N37V yielded an abundance fitness of -0.277 ± 0.097.
N37E gave an abundance fitness of -0.005 ± 0.082.
N37W showed an abundance fitness of -0.36 ± 0.18.
Q22V gave an abundance fitness of -0.494 ± 0.079.
Variant Q22H has an abundance fitness of -0.413 ± 0.19.
For A15P, the abundance fitness was -0.025 ± 0.1.
A15Q showed an abundance fitness of -0.171 ± 0.13.
Variant E74Q has an abundance fitness of -0.45 ± 0.13.
Variant L12H has an abundance fitness of 0.274 ± 0.15.
L12N gave an abundance fitness of 0.139 ± 0.2.
For L46N, the abundance fitness was -0.878 ± 0.36.
For L46M, the abundance fitness was -0.201 ± 0.039.
For T65R, the abundance fitness was -0.04 ± 0.044.
T65E gave an abundance fitness of 0.015 ± 0.074.
In the case of T65Y, the abundance fitness is reported as -0.132 ± 0.11.
For T65I, the abundance fitness was -0.209 ± 0.14.
With R53T the abundance fitness was -0.682 ± 0.18.
D71K gave an abundance fitness of -0.058 ± 0.079.
With L40Q the abundance fitness was -0.029 ± 0.17.
Work on S38C yielded an abundance fitness of -0.099 ± 0.087.
In the case of S38N, the abundance fitness is reported as -0.174 ± 0.11.
Variant S38P has an abundance fitness of -0.822 ± 0.23.
F23N showed an abundance fitness of -1.02 ± 0.32.
For F23Q, the abundance fitness was -0.883 ± 0.24.
For R32W, the abundance fitness was -0.31 ± 0.45.
R32I showed an abundance fitness of -0.124 ± 0.071.
With R32P the abundance fitness was -0.831 ± 0.23.
In the case of S7A, the abundance fitness is reported as 0.109 ± 0.055.
Variant S7L has an abundance fitness of -0.808 ± 0.1.
Variant V5H has an abundance fitness of -0.216 ± 0.1.
With V5I the abundance fitness was -0.337 ± 0.15.
In the case of I70P, the abundance fitness is reported as -0.8 ± 0.19.
Variant E26M has an abundance fitness of -0.189 ± 0.1.
With E26Q the abundance fitness was -0.119 ± 0.098.
With E26V the abundance fitness was -0.233 ± 0.064.
Work on E26W yielded an abundance fitness of -0.197 ± 0.054.
S69L gave an abundance fitness of -0.161 ± 0.056.
Variant R19Q has an abundance fitness of -0.052 ± 0.12.
R19W gave an abundance fitness of -0.268 ± 0.09.
Work on M78T yielded an abundance fitness of 0.085 ± 0.091.
With M78C the abundance fitness was 0.065 ± 0.085.
In the case of M78A, the abundance fitness is reported as -0.003 ± 0.061.
Work on V44S yielded an abundance fitness of 0.154 ± 0.045.
With V44H the abundance fitness was 0.275 ± 0.078.
For A4G, the abundance fitness was 0.084 ± 0.071.
With Q56N the abundance fitness was -0.191 ± 0.47.
Work on E34R yielded an abundance fitness of -0.204 ± 0.12.
For V25E, the abundance fitness was 0.078 ± 0.06.
For V25Q, the abundance fitness was -0.03 ± 0.066.
Work on E61Q yielded an abundance fitness of 0.459 ± 0.34.
With E61S the abundance fitness was -0.284 ± 0.16.
H9E gave an abundance fitness of -0.148 ± 0.16.
In the case of A45T, the abundance fitness is reported as -0.085 ± 0.074.
In the case of A45S, the abundance fitness is reported as -0.03 ± 0.057.
Variant Y64C has an abundance fitness of -0.24 ± 0.084.
N77T showed an abundance fitness of 0.041 ± 0.082.
N57Y gave an abundance fitness of 0.093 ± 0.21.
For I75H, the abundance fitness was -0.594 ± 0.27.
For I75V, the abundance fitness was -0.098 ± 0.073.
Variant I75S has an abundance fitness of -0.457 ± 0.1.
For R72L, the abundance fitness was -0.581 ± 0.087.
In the case of R72A, the abundance fitness is reported as -0.632 ± 0.1.
R72G showed an abundance fitness of -0.499 ± 0.065.
For V33M, the abundance fitness was -0.034 ± 0.076.
Work on V33K yielded an abundance fitness of -0.215 ± 0.14.
V51N gave an abundance fitness of -0.159 ± 0.12.
Variant L17R has an abundance fitness of -1.03 ± 0.17.
Variant L17W has an abundance fitness of -0.636 ± 0.12.
Variant L47M has an abundance fitness of 0.061 ± 0.11.
For R30G, the abundance fitness was -0.236 ± 0.05.
Variant R30Y has an abundance fitness of -0.298 ± 0.16.
With R30L the abundance fitness was -0.213 ± 0.057.
For I31C, the abundance fitness was -0.872 ± 0.2.
G73T gave an abundance fitness of -0.306 ± 0.054.
G73W showed an abundance fitness of -0.29 ± 0.05.
Variant A66E has an abundance fitness of -0.85 ± 0.17.
A66H showed an abundance fitness of -0.151 ± 0.087.
Work on M3V yielded an abundance fitness of -0.024 ± 0.053.
For M3C, the abundance fitness was -0.385 ± 0.07.
Variant M3I has an abundance fitness of 0.127 ± 0.11.
Variant N35R has an abundance fitness of -0.068 ± 0.11.
In the case of N35C, the abundance fitness is reported as -0.355 ± 0.22.
For N62C, the abundance fitness was -0.126 ± 0.11.
G55D gave an abundance fitness of -0.1 ± 0.1.
L49H showed an abundance fitness of -0.239 ± 0.12.
L49T showed an abundance fitness of -0.216 ± 0.092.
Variant E54W has an abundance fitness of -0.62 ± 0.11.
With E54Q the abundance fitness was -0.118 ± 0.039.
With N48C the abundance fitness was -0.495 ± 0.17.
With N48F the abundance fitness was -0.896 ± 0.24.
Q42D showed an abundance fitness of -0.698 ± 0.17.
For S43N, the abundance fitness was -0.099 ± 0.27.
In the case of G11Y, the abundance fitness is reported as -0.481 ± 0.28.
In the case of S24R, the abundance fitness is reported as -0.25 ± 0.051.
Variant S24V has an abundance fitness of -0.722 ± 0.097.
S24F showed an abundance fitness of -0.837 ± 0.36.
With A58W the abundance fitness was -0.062 ± 0.077.
For E80R, the abundance fitness was -0.17 ± 0.13.
In the case of L79G, the abundance fitness is reported as -0.379 ± 0.059.
E8K showed an abundance fitness of 0.075 ± 0.14.
P36H gave an abundance fitness of -0.31 ± 0.12.
For P36Y, the abundance fitness was -0.565 ± 0.25.
Work on P36N yielded an abundance fitness of -0.104 ± 0.25.
Work on I28F yielded an abundance fitness of -0.738 ± 0.22.

— the Human Domainome abundance scans (Beltran et al. 2025)
